According to US20100144645A1, “COMPOSITIONS AND METHODS FOR ENHANCING […] POTENCY OF […]-COMPOUNDS, A[…] ADVERSE SIDE EFFECTS, AND […] ABUSE” (SHIRE LLC, priority 2006, published 2010):
Residues, ends and D or L forms follow the SMILES beside them. *: point of attachment. X1 = COc1ccc2c3c1OC1C(O*)=CCC4[C@@H](C2)N(C)CC[C@]314

Experiments:
[1] = Oral bioavailability of oxycodone conjugates (plasma oxycodone plus oxymorphone); conditions: rats; for AUC % (Oral Bioavailability): Table G
[2] = Intranasal bioavailability of hydrocodone conjugates; conditions: rats, relative to hydrocodone
[3] = stability 90 C., 20 min (V, BP, TW, BS) of hydrocodone conjugates; conditions: for stability 90 C., 20 min BP: BP (abbreviation not defined); for stability 90 C., 20 min BS: BS (abbreviation not defined); for stability 90 C., 20 min TW: TW (abbreviation not defined); for stability 90 C., 20 min V: V (abbreviation not defined)
[4] = Oral bioavailability of hydrocodone conjugates (plasma hydrocodone plus hydromorphone); conditions: for bioavailabiltty (% HC) oral AUC / bioavailabiltty (% HC) oral Cmax: rats, relative to hydrocodone; for Oral:IN Index AUC: ratio of oral to IN AUC (% HC); for Oral:IN Index Cmax: ratio of oral to IN Cmax (% HC)
[5] = n = 4 animals, analysis by LC-MS, OXY = 100

Structure (SMILES): CC[C@H](C)[C@H](NC(=O)[C@H](CCC(=O)O)NC(=O)[C@@H](N)CCC(=O)O)C(=O)OC1=CCC2(O)[C@H]3Cc4ccc(OC)c5c4[C@@]2(CCN3C)C1O5 (stereo partly drawn) [Glu-Glu-Ile-OC]
- Oral (% AUC) [1, 5]: 179 % AUC

Structure (SMILES): COc1ccc2c3c1OC1C(OC(=O)[C@H](CC(C)C)NC(=O)[C@H](CCC(=O)O)NC(=O)[C@@H](N)CCC(=O)O)=CCC4(O)[C@@H](C2)N(C)CC[C@]314 (stereo partly drawn) [Glu-Glu-Leu-OC]
- Oral (% AUC) [1, 5]: 80 % AUC

Structure (SMILES): COc1ccc2c3c1OC1C(OC(=O)[C@H](Cc4ccccc4)NC(=O)[C@H](CCC(=O)O)NC(=O)[C@@H](N)CCC(=O)O)=CCC4(O)[C@@H](C2)N(C)CC[C@]314 (stereo partly drawn) [Glu-Glu-Phe-OC]
- Oral (% AUC) [1, 5]: 49 % AUC

Structure (SMILES): COc1ccc2c3c1OC1C(OC(=O)[C@@H]4CCCN4C(=O)[C@H](CCC(=O)O)NC(=O)[C@@H](N)CCC(=O)O)=CCC4(O)[C@@H](C2)N(C)CC[C@]314 (stereo partly drawn) [Glu-Glu-Pro-OC]
- Oral (% AUC) [1, 5]: 71 % AUC

Structure (SMILES): COc1ccc2c3c1OC1C(OC(=O)[C@@H](NC(=O)[C@H](CCC(=O)O)NC(=O)[C@@H](N)CCC(=O)O)C(C)C)=CCC4(O)[C@@H](C2)N(C)CC[C@]314 (stereo partly drawn) [Glu-Glu-Val-OC]
- Oral (% AUC) [1, 5]: 55 % AUC

Structure (SMILES): CC[C@H](C)[C@H](NC(=O)CNC(=O)CN)C(=O)OC1=CCC2(O)[C@H]3Cc4ccc(OC)c5c4[C@@]2(CCN3C)C1O5 (stereo partly drawn) [Gly-Gly-Ile-OC]
- Oral (% AUC) ([1]; n = 4, LC-MS, Dosed at 40% higher levels than calculated): 224 % AUC

Structure (SMILES): COc1ccc2c3c1OC1C(OC(=O)[C@H](Cc4ccccc4)NC(=O)CNC(=O)CN)=CCC4(O)[C@@H](C2)N(C)CC[C@]314 (stereo partly drawn) [Gly-Gly-Phe-OC]
- Oral (% AUC) [1, 5]: 163 % AUC

Structure (SMILES): COc1ccc2c3c1OC1C(OC(=O)[C@@H](NC(=O)CNC(=O)CN)C(C)C)=CCC4(O)[C@@H](C2)N(C)CC[C@]314 (stereo partly drawn) [Gly-Gly-Val-OC]
- Oral (% AUC) [1, 5]: 123 % AUC

Structure (SMILES): CC[C@H](C)[C@H](N)C(=O)N[C@H](C(=O)N[C@H](C(=O)OC1=CCC2(O)[C@H]3Cc4ccc(OC)c5c4[C@@]2(CCN3C)C1O5)[C@@H](C)CC)[C@@H](C)CC (stereo partly drawn) [Ile-Ile-Ile-OC]
- Oral (% AUC) [1, 5]: 83 % AUC

Structure (SMILES): COc1ccc2c3c1OC1C(OC(=O)[C@@H](NC(=O)[C@H](CC(C)C)NC(=O)[C@@H](N)CC(C)C)C(C)C)=CCC4(O)[C@@H](C2)N(C)CC[C@]314 (stereo partly drawn) [Leu-Leu-Val-OC]
- Oral (% AUC) [1, 5]: 81 % AUC

Structure (SMILES): CC[C@H](C)[C@H](NC(=O)[C@H](CCCCN)NC(=O)[C@@H](N)CCCCN)C(=O)OC1=CCC2(O)[C@H]3Cc4ccc(OC)c5c4[C@@]2(CCN3C)C1O5 (stereo partly drawn) [Lys-Lys-Ile-OC]
- Oral (% AUC) [1, 5]: 74 % AUC

Structure (SMILES): COc1ccc2c3c1OC1C(OC(=O)[C@H](CC(C)C)NC(=O)[C@H](CCCCN)NC(=O)[C@@H](N)CCCCN)=CCC4(O)[C@@H](C2)N(C)CC[C@]314 (stereo partly drawn) [Lys-Lys-Leu-OC]
- Oral (% AUC) [1, 5]: 46 % AUC

Structure (SMILES): COc1ccc2c3c1OC1C(OC(=O)[C@H](Cc4ccccc4)NC(=O)[C@H](CCCCN)NC(=O)[C@@H](N)CCCCN)=CCC4(O)[C@@H](C2)N(C)CC[C@]314 (stereo partly drawn) [Lys-Lys-Phe-OC]
- Oral (% AUC) [1, 5]: 37 % AUC

Structure (SMILES): COc1ccc2c3c1OC1C(OC(=O)[C@@H](NC(=O)[C@H](CCCCN)NC(=O)[C@@H](N)CCCCN)C(C)C)=CCC4(O)[C@@H](C2)N(C)CC[C@]314 (stereo partly drawn) [Lys-Lys-Val-OC]
- Oral (% AUC) [1, 5]: 108 % AUC

Structure (SMILES): CC[C@H](C)[C@H](NC(=O)[C@H](Cc1ccccc1)NC(=O)[C@@H](N)Cc1ccccc1)C(=O)OC1=CCC2(O)[C@H]3Cc4ccc(OC)c5c4[C@@]2(CCN3C)C1O5 (stereo partly drawn) [Phe-Phe-Ile-OC]
- Oral (% AUC) [1, 5]: 59 % AUC

Structure (SMILES): COc1ccc2c3c1OC1C(OC(=O)[C@@H](NC(=O)[C@H](Cc4ccccc4)NC(=O)[C@@H](N)Cc4ccccc4)C(C)C)=CCC4(O)[C@@H](C2)N(C)CC[C@]314 (stereo partly drawn) [Phe-Phe-Val-OC]
- Oral (% AUC) [1, 5]: 32 % AUC

Structure (SMILES): CC[C@H](C)[C@H](NC(=O)[C@H](CC(C)C)NC(=O)[C@@H]1CCCN1)C(=O)OC1=CCC2[C@H]3Cc4ccc(OC)c5c4[C@@]2(CCN3C)C1O5 (stereo partly drawn) [Pro-Leu-Ile-HC]
- bioavailabiltty (% HC) IN AUC [2]: 87 % HC
- bioavailabiltty (% HC) IN Cmax [2]: 101 % HC
- stability 90 C., 20 min BP [3]: 100
- stability 90 C., 20 min BS [3]: 100
- stability 90 C., 20 min TW [3]: 100
- stability 90 C., 20 min V [3]: 0
- bioavailabiltty (% HC) oral AUC [4]: 141 % HC
- bioavailabiltty (% HC) oral Cmax [4]: 172 % HC

Structure (SMILES): CC[C@H](C)[C@H](NC(=O)[C@@H]1CCCN1C(=O)[C@@H]1CCCN1)C(=O)OC1=CCC2(O)[C@H]3Cc4ccc(OC)c5c4[C@@]2(CCN3C)C1O5 (stereo partly drawn) [Pro-Pro-Ile-OC]
- AUC % (Oral Bioavailability) [1]: 85%
- Oral (% AUC) [1, 5]: 85 % AUC

Structure (SMILES): COc1ccc2c3c1OC1C(OC(=O)[C@H](CC(C)C)NC(=O)[C@@H]4CCCN4C(=O)[C@@H]4CCCN4)=CCC4[C@@H](C2)N(C)CC[C@]314 (stereo partly drawn) [Pro-Pro-Leu-HC]
- bioavailabiltty (% HC) IN AUC [2]: 46 % HC
- bioavailabiltty (% HC) IN Cmax [2]: 48 % HC
- stability 90 C., 20 min BP [3]: 100
- stability 90 C., 20 min BS [3]: 100
- stability 90 C., 20 min TW [3]: 100
- stability 90 C., 20 min V [3]: 2
- bioavailabiltty (% HC) oral AUC [4]: 94 % HC
- bioavailabiltty (% HC) oral Cmax [4]: 108 % HC
- Oral:IN Index AUC [4]: 2.04
- Oral:IN Index Cmax [4]: 2.25

Structure (SMILES): COc1ccc2c3c1OC1C(OC(=O)[C@@H](NC(=O)[C@@H]4CCCN4C(=O)[C@@H]4CCCN4)C(C)C)=CCC4(O)[C@@H](C2)N(C)CC[C@]314 (stereo partly drawn) [Pro-Pro-Val-OC]
- AUC % (Oral Bioavailability) [1]: 152%
- Oral (% AUC) [1, 5]: 152 % AUC

Structure (SMILES): CC[C@H](C)[C@H](NC(=O)[C@H](Cc1ccccc1)NC(=O)[C@H](Cc1ccccc1)NC(=O)[C@H](Cc1ccc(O)cc1)NC(=O)[C@@H](N)Cc1ccc(O)cc1)C(=O)OC1=CCC2[C@H]3Cc4ccc(OC)c5c4[C@@]2(CCN3C)C1O5 (stereo partly shown) [Tyr2-Phe2-Ile-HC] (H-YYFFI-X1)
- bioavailabiltty (% HC) IN AUC [2]: 26 % HC
- bioavailabiltty (% HC) IN Cmax [2]: 34 % HC
- stability 90 C., 20 min BP [3]: 5
- stability 90 C., 20 min BS [3]: 50
- stability 90 C., 20 min TW [3]: 5
- stability 90 C., 20 min V [3]: 0
- bioavailabiltty (% HC) oral AUC [4]: 113 % HC
- bioavailabiltty (% HC) oral Cmax [4]: 63 % HC
- Oral:IN Index AUC [4]: 4.35
- Oral:IN Index Cmax [4]: 1.85

Structure (SMILES): CC[C@H](C)[C@H](NC(=O)[C@H](Cc1ccc(O)cc1)NC(=O)[C@@H](N)Cc1ccc(O)cc1)C(=O)OC1=CCC2[C@H]3Cc4ccc(OC)c5c4[C@@]2(CCN3C)C1O5 (stereo partly drawn) [Tyr-Tyr-Ile-HC]
- bioavailabiltty (% HC) IN AUC [2]: 20 % HC
- bioavailabiltty (% HC) IN Cmax [2]: 34 % HC
- stability 90 C., 20 min BP [3]: 66
- stability 90 C., 20 min BS [3]: 100
- stability 90 C., 20 min TW [3]: 23
- stability 90 C., 20 min V [3]: 0
- bioavailabiltty (% HC) oral AUC [4]: 145 % HC
- bioavailabiltty (% HC) oral Cmax [4]: 234 % HC
- Oral:IN Index AUC [4]: 7.25
- Oral:IN Index Cmax [4]: 6.88

Structure (SMILES): CC[C@H](C)[C@H](NC(=O)[C@H](Cc1ccc(O)cc1)NC(=O)[C@@H](N)Cc1ccc(O)cc1)C(=O)OC1=CCC2(O)[C@H]3Cc4ccc(OC)c5c4[C@@]2(CCN3C)C1O5 (stereo partly drawn) [Tyr-Tyr-Ile-OC]
- Oral (% AUC) [1, 5]: 85 % AUC

Structure (SMILES): COc1ccc2c3c1OC1C(OC(=O)[C@H](Cc4ccccc4)NC(=O)[C@H](Cc4ccc(O)cc4)NC(=O)[C@@H](N)Cc4ccc(O)cc4)=CCC4(O)[C@@H](C2)N(C)CC[C@]314 (stereo partly drawn) [Tyr-Tyr-Phe-OC]
- Oral (% AUC) [1, 5]: 73 % AUC

Structure (SMILES): COc1ccc2c3c1OC1C(OC(=O)[C@@H]4CCCN4C(=O)[C@H](Cc4ccc(O)cc4)NC(=O)[C@@H](N)Cc4ccc(O)cc4)=CCC4(O)[C@@H](C2)N(C)CC[C@]314 (stereo partly drawn) [Tyr-Tyr-Pro-OC]
- Oral (% AUC) [1, 5]: 59 % AUC

Structure (SMILES): COc1ccc2c3c1OC1C(OC(=O)[C@@H](NC(=O)[C@H](Cc4ccc(O)cc4)NC(=O)[C@@H](N)Cc4ccc(O)cc4)C(C)C)=CCC4(O)[C@@H](C2)N(C)CC[C@]314 (stereo partly drawn) [Tyr-Tyr-Val-OC]
- AUC % (Oral Bioavailability) [1]: 124%
- Oral (% AUC) [1, 5]: 124 % AUC

Structure (SMILES): COc1ccc2c3c1OC1C(OC(=O)[C@H](Cc4ccccc4)NC(=O)[C@@H](NC(=O)[C@@H](N)C(C)C)C(C)C)=CCC4(O)[C@@H](C2)N(C)CC[C@]314 (stereo partly drawn) [Val-Val-Phe-OC]
- Oral (% AUC) [1, 5]: 120 % AUC
